US20070134813A1
One block for each molecule: values may come before it.

Columns and labels:
[1] = biological target: T1, C-reactive protein (human) (UniProt P02741); experiment: SPR, Fn 1 mg/mL in the presence of 50 uM 9-mer injected over antibody-captured CRP
T1 sequence (looked up): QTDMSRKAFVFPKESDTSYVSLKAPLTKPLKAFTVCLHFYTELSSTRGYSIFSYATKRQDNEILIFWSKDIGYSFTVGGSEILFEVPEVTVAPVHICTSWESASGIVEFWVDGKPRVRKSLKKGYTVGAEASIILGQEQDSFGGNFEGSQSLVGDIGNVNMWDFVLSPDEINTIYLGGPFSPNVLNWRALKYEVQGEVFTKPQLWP

[2] = biological target: T1, C-reactive protein (human); experiment: SPR, Fn 1 mg/mL in the presence of 50 uM 10-mer injected over antibody-captured CRP
[3] = biological target: T1, C-reactive protein (human); experiment: SPR, Fn 1 mg/mL in the presence of 50 uM 19-mer injected over antibody-captured CRP
[4] = biological target: T1, C-reactive protein (human); experiment: SPR (Biacore X), Fn 1 mg/mL without inhibitor injected over CRP captured on immobilized anti-CRP antibody, 25 C
[5] = biological target: T1, C-reactive protein (human); experiment: SPR, inhibition of Fn (1 mg/mL) binding to antibody-captured CRP at 50 uM peptide

Molecule: PRCGNPDVA [9-mer (SEQ ID NO.: 16)]
- % Inhibition [5]: 0%

Molecule: NYNFFPRKPK [10-mer (SEQ ID NO.: 12)]
- % Inhibition [5]: 35.6%

Second part, the molecule after the results:

- SPR Response (RU) [1]: 119 RU
- SPR Response (RU) [2]: 76 RU
- SPR Response (RU) [3]: 76 RU
- SPR Response (RU) [4]: 118 RU
Molecule: fibronectin (from UniProt P02751 32-2477)

- % Inhibition [5]: 35.6%
Molecule: PRCGNPDVANYNFFPRKPK [19-mer (SEQ ID NO.: 11)]
